The text below walks through data of PMC3792052, “Structural Analysis of Intermolecular Interactions in the Kinesin Adaptor Complex Fasciculation and Elongation Protein Zeta 1/ Short Coiled-Coil Protein (FEZ1/SCOCO)” (PLoS ONE, 2013).

Data set [1] addresses 6xHis-FEZ1 (1-392) (human) (UniProt Q99689). The data set is described as follows: SAXS; complex formed by lysing the two E. coli pellets together, two-step co-affinity purification (6xHis, then GST); purified complex at 1.10 and 0.34 mg/mL in PBS, 20 °C; mass from I(0) against BSA.
Data set [2] deals with the molecule itself. Described as above.

Molecule GST-SCOCO (2-82) (natural protein) came in with a stoichiometry N (GST-SCOCO per 6xHis-FEZ1 (2:2)) in data set [1] of 1.

B1: 6xHis-FEZ1 (1-392) (natural protein, human, UniProt Q99689 1-392, looked up)
chain: MEAPLVSLDEEFEDLRPSCSEDPEEKPQCFYGSSPHHLEDPSLSELENFSSEIISFKSMEDLVNEFDEKLNVCFRNYNAKTENLAPVKNQLQIQEEEETLQDEEVWDALTDNYIPSLSEDWRDPNIEALNGNCSDTEIHEKEEEEFNEKSENDSGINEEPLLTADQVIEEIEEMMQNSPDPEEEEEVLEEEDGGETSSQADSVLLQEMQALTQTFNNNWSYEGLRHMSGSELTELLDQVEGAIRDFSEELVQQLARRDELEFEKEVKNSFITVLIEVQNKQKEQRELMKKRRKEKGLSLQSSRIEKGNQMPLKRFSMEGISNILQSGIRQTFGSSGTDKQYLNTVIPYEKKASPPSVEDLQMLTNILFAMKEDNEKVPTLLTDYILKVLCPT
notes: Predicted mass of the tagged protein printed as 48.8 KDa; also called fasciculation and elongation protein zeta 1; source: for SAXS cells lysed together with GST-SCOCO cells and co-purified (HiTrap chelating, then GST-Trap)
For the molecule B1, the “stoichiometry N” value in data set [2] is 2.

A word on the stoichiometry N: it is the number of molecules, sites or subunits per partner or assembly.
